According to paper PMC5027577:

Columns and labels:
[1] = target: T1, TGF-β type I receptor (TRI) (human (endogenous in HeLa)), P36897; assay: live-cell single-molecule TIRFM tracking (membrane on-times); EGFP-Smad3 or EGFP-M-Smad3 at low expression in living HeLa cells, unstimulated; 10 Hz; cumulative histograms of on-times fitted with a single exponential; conditions: remark: other sources report otherwise
T1 chain: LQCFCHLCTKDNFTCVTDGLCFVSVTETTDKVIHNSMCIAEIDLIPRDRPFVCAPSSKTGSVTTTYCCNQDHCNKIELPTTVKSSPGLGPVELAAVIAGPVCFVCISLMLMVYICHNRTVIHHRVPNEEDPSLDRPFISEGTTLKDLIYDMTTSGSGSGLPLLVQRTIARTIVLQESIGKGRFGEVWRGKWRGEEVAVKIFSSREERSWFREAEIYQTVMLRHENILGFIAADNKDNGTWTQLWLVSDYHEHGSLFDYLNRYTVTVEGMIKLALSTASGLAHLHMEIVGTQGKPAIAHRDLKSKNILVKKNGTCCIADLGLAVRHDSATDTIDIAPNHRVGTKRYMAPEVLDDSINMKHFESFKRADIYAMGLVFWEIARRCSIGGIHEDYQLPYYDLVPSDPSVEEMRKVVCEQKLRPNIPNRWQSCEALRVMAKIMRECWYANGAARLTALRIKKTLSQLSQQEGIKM

[2] = target: T1, TGF-β type I receptor (TRI) (human …); assay: live-cell single-molecule TIRFM tracking (membrane on-times); EGFP-Smad3 or EGFP-M-Smad3 at low expression in living HeLa cells treated with 10 ng/ml TGF-β1 for 15 min at 37 °C; 10 Hz; cumulative histograms of on-times fitted with a single exponential; conditions: remark: other sources report otherwise

- koff [1]: 1.96 s⁻¹
- time constant of membrane on-times (τu) [1]: 0.51 s
- koff [2]: 1.67 s⁻¹
- time constant of membrane on-times (τs) [2]: 0.6 s
B1: EGFP-Smad3, P84022 1-425 (natural protein)
chain: MSSILPFTPPIVKRLLGWKKGEQNGQEEKWCEKAVKSLVKKLKKTGQLDELEKAITTQNVNTKCITIPRSLDGRLQVSHRKGLPHVIYCRLWRWPDLHSHHELRAMELCEFAFNMKKDEVCVNPYHYQRVETPVLPPVLVPRHTEIPAEFPPLDDYSHSIPENTNFPAGIEPQSNIPETPPPGYLSEDGETSDHQMNHSMDAGSPNLSPNPMSPAHNNLDLQPVTYCEPAFWCSISYYELNQRVGETFHASQPSMTVDGFTDPSNSERFCLGLLSNVNRNAAVELTRRHIGRGVRLYYIGGEVFAECLSDSAIFVQSPNCNQRYGWHPATVCKIPPGCNLKIFNNQEFAALLAQSVNQGFEAVYQLTRMCTIRMSFVKGWGAEYRRQTVTSTPCWIELHLNGPLQWLDKVLTQMGSPSIRCSSVS
